Data published in the supplement of paper PMC9170038.

Test system: MS2 coat protein
Assay: apparent KD of MS2 coat protein; designed switch direction (-1 OFF switch, 1 ON switch): -1; higher = weaker reporter binding
Outline: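 Apparent KD, taken as the median over clusters for each design, was obtained by curve-fitting normalised cluster fluorescence. Designed RNA switches had been transcribed on Illumina chips by stalled E. coli RNA polymerase and titrated with SNAP-549-labelled MS2 coat protein, doubling from 0.7 or 1.5 nM to 3 µM.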

[1] = input ligand: microRNA oligo, concentration not stated
[2] = Eterna round: R95, input ligand: microRNA oligo, concentration not stated
[3] = Eterna round: R95, input ligand: FMN 200 uM
[4] = Eterna round: R95, input ligand: none

Sequence	apparent KD of MS2 coat protein (input ligand: FMN 200 uM) [nM]	apparent KD of MS2 coat protein (input ligand: none) [nM]	apparent KD of MS2 coat protein [1] [nM]	apparent KD of MS2 coat protein [2] [nM]	also measured
AGCUGACGAGGAUAUACAUGAGGAUCACCCAUGUUGGUCAAGCGACGAUAGUCGCAAUGUAGAAGGCGUCAGCU [E3/8-A1] (Eterna round: R97, puzzle: Exclusion 3)	621	547			
AUGCUCCGUGUAGGAUAUCGCCGCACCACCCGGCGAGAAGGACAUGAGGAUCACCCAUGUAUGUUAUUAUCACGUGUGGCGCGC [Design 42] (Eterna round: R96, puzzle: Exclusion NG 1)	17.2	13.6	12.3		
CUCGUGUGAGGAUAUCGAUUAUGGAAGUCUAGAUCCAUACGCGAGAAGGCACAUGAGGAUCACCCAUGUAAUGG [jl-ex4-4.35 ViennaUCT mod] (Eterna round: R97, puzzle: Exclusion 4)	68.3	176			
UUGAAGUCAUCAGGAUAUAGUUUUAAUGUCAUGCUUAAGUUCUUACAUGAGGAUCACCCAUGUCGCUAGAAGGGAUUAUAGAUU [JR_ExcNG2_Sub078] (Eterna round: R96, puzzle: Exclusion NG 2)	66.8	67.7	42.6		
GCACGGUUGGUAGGAUAUCCUUGCGAUUAGCAAGGAGAAGGACCACAUGAGGAUCACCCAUGUACCUCAAUAAUCCUUCCGUGC [Eli exng1 - 027] (Eterna round: R96, puzzle: Exclusion NG 1)	12.8	14.7	12.1		
AGUAACAGAGGAUAUACUGUUUUAUGUGUUUAUUGUUUUAAACAUGAGGAUCACCCAUGUAGAAGGCUGAAUAA [JMF 85] (puzzle: Exclusion 2)				25.5	
GGAUCGUAUGUCAGGAUAUGCCACUGGAUACAGUGGUAGAAGGGACAUGAGGAUCACCCAUGUCCUACCGAUCC [Fiskers BMX 4 - 50] (puzzle: Brourd's mod of Exclusion 4)				12.4	
GCAUCCAGUGUGAGGAUAUACCUCUGGAUACAUAGGUAGAAGGCACAUGAGGAUCACCCAUGUCCUAAGGAUGC [Fiskers BMX 4 - 29] (puzzle: Brourd's mod of Exclusion 4)				47.5	apparent KD of MS2 coat protein [3]: 104 nM; apparent KD of MS2 coat protein [4]: 75.5 nM
AAGAAACAUGAGGAUCACCCAUGUGAGGAUAUGAUGCGAAUUAUGUAUGUAGUAAGCAUCAGAAGGCACAAAGG [Mat - Mod Mix D39] (puzzle: Exclusion 1)				142	
UGAUCAGACCGAGGAUAUACAGGGAGGACGCACGUGAGUGCGUCCACUACAUGAGGAUCACCCAUGUAGAAGGCGGUCUGAUCU [JL ENG2 1.99] (Eterna round: R96, puzzle: Exclusion NG 2)	319	19.9	16.9		
CCAGGCAGUGUGAGGAUAUGCUGGUGCAUACAUCAGCAGAAGGCACAUGAGGAUCACCCAUGUGAAGAGCUUGG [Mat - Exclusion 4 - JL Mod - D98] (puzzle: Brourd's mod of Exclusion 4)				16.9	apparent KD of MS2 coat protein [3]: 179 nM; apparent KD of MS2 coat protein [4]: 27.5 nM
UUUGUUUGCACAGGAUAUUGUUAUUUUAUUUUUCAAGAAGGGUGUACAUGAGGAUCACCCAUGUUAAGGUUUAAUCUUUCACUU [JR_ExcNG1_Sub010] (Eterna round: R96, puzzle: Exclusion NG 1)	346	619	479		
CCGGAACAUGAGGAUCACCCAUGUCAGGAUAUCCCUAAAUCGUCGAUAGACGAUAAAAGGAGAAGGGACACCGG [Mat - Exclusion 1 - Eli Mod - D26] (Eterna round: R97, puzzle: Exclusion 1)	19.3	16.3			
CACCGUUAGAGAGGAUAUCGUACAUGAGGAUCACCCAUGUAAUAAAUGAGAAUUUCGGAUGUCUGCGAGAAGGCUCGAAUCGGC [Ostracism 32 - Jieux - Exclusion NG 2] (Eterna round: R96, puzzle: Exclusion NG 2)			23		
UCGGCGCGAGGAUAUGCGGUUUGUGCUUUGGGCCCUGGCGUACAUGAGGAUCACCCAUGUAGAAGGCGCGCCGC [Apr-15 SS2-47] (puzzle: Exclusion 2)				15.9	
ACGUAUAGAGGAUAUACAGAAUAUUACAUGAGGAUCACCCAUGUUCUUCAAUGUAUAUUUGUAGAAGGCUAAUGAA [EX-5 Malc#8] (puzzle: Exclusion 5)				62.3	
CCUUAACAUGAGGAUCACCCAUGUGAGGAUAUGAUGCAGCAGUGGUCUACGCUGUGCAUCAGAAGGUACAUGGU (puzzle: Exclusion 1)				38.9	

Sequence	apparent KD of MS2 coat protein (input ligand: FMN 200 uM) [nM]	apparent KD of MS2 coat protein (input ligand: none) [nM]	apparent KD of MS2 coat protein [1] [nM]	apparent KD of MS2 coat protein [2] [nM]	also measured
AGAUAGUGCUGAGGAUAUCUGAAUAGAAAGAAAAGAGAAGGCGGACAUGAGGAUCACCCAUGUGAGGUCUUGAGACUACAUGGU [Prohibition 37 - Jieux - Exclusion NG 1] (Eterna round: R96, puzzle: Exclusion NG 1)	393	80.4	42.9		
GGAUUACAUGAGGAUCACCCAUGUCAGGAUAUGAAAGCAUAUGCCGAAAGGCAUAUGCGCAGAAGGGACAAUAU [AK-MS2ROC-r4-exclusion1-3.0] (Eterna round: R97, puzzle: Exclusion 1)	45.7	27.5			
AGUAACAGAGGAUAUACUGUUUUAUGUGUUUGUUAUUUUAAACAUGAGGAUCACCCAUGUAGAAGGCUGAAUAA [JMF 83] (puzzle: Exclusion 2)				21.4	
UUGUUAUAUGUAGGAUAUGCGUAUUAUUAUUAUGCAGAAGGACAUGAGGAUCACCCAUGUAUAUUAUUAUUAUAUAUUAUAUAU [Title] (Eterna round: R96, puzzle: Exclusion NG 1)			21.9		
AAGAAGUCAGGAUAUGCUAAAGAAAUAAAAAGAAAGAAAGAACAUGAGGAUCACCCAUGUAGAAGGGACAAGAA [Seheqenre Sankhptahi] (Eterna round: R96, puzzle: Exclusion 2)			31.8		
CAAACAAGCGAAAGAUCCCACAUGAGGAUCACCCAUGUGCUCGUCUUAUAAGGUACUGUGACGAUAGUCACGGUACC [Mat - Sensor, turn-off var - Eli Mod - D79] (Eterna round: R97, puzzle: Sensor, turn-off variant 1)	36.8	45.2			
AACAGUACAGGAUAUACAUGAGGAUCACCCAUGUGAGAAUUAAGUGGAAAACCACAAAGUAGAAGGGUACUGGA [Mat - Exclusion 3 - JL mod - D3] (Eterna round: R96, puzzle: Exclusion 3)	209		23.3		
AAAUAGCUAGAGGAUAUUGGAUAGGAUUUAGUGCGAGAAGGCUAGACAUGAGGAUCACCCAUGUUGUGUUGGGA [EX6 #14] (Eterna round: R97, puzzle: Exclusion 6)	82.3	50.3			
CCAUAUAGGAGAGGAUAUACGCACCACUAACUAGUAGAAGGCUCACAUGAGGAUCACCCAUGUGAUUUCUCAAUAUUAUACAUC [Prohibition 73 - Jieux - Exclusion NG 1] (Eterna round: R96, puzzle: Exclusion NG 1)	50.3	34.8	25.6		
ACAUGAGGAUCACCCAUGUCCGGCUGGUCCGUUUCGGCUGUCGAGGAUAUAGUUCGGUGUCCGCGCUAGAAGGCGGGAGCUGGC [Aenatbe mod 61] (Eterna round: R96, puzzle: Exclusion NG 3)	181	98.5	67		
GGAUCGAGUGUGAGGAUAUGCUGGUCCUUGGAUCAGCAGAAGGCACAUGAGGAUCACCCAUGUGAAGACGAUCC [Eli bmx4 4.55] (Eterna round: R97, puzzle: Brourd's mod of Exclusion 4)	340	40.1			
AGUAGAUCUACGCUUGCGUGGAUCUGCUAGGCAGGUGUAACAUGAGGAUCACCCAUGUCCUCAUUUGUUCGUCUUAU [JL turnoff v2 99.18] (puzzle: Sensor v3, turn-off variant 2)				313	apparent KD of MS2 coat protein [3]: 85.4 nM; apparent KD of MS2 coat protein [4]: 28.3 nM
GGCCUACAUGAGGAUCACCCAUGUAAGGAUAUCAAGUCGGGCUCCAAGGAAGCCCAUAUGAGAAGGUAUUUGGG [Eternabot (L2) Solution 32] (Eterna round: R97, puzzle: Exclusion 1)	116	25.3			
UAUUAAGCAAGCAGAUCCCACAUGAGGAUCACCCAUGUGCUCGUCUUAUAAGGUACUGUGACGAGAGUCACGGUACC [Mat - Sensor, turn-off var - Eli Mod - D69] (Eterna round: R97, puzzle: Sensor, turn-off variant 1)	165	129			
AGAUGGCGAGGAUAUACAUGAGGAUCACCCAUGUGAGAUAAGAAAGUGAGGAAGAAAAGUAGAAGGCGCUGUCA [Mat - Exclusion 3 - Mod of Salish D12] (puzzle: Exclusion 3)				58.6	apparent KD of MS2 coat protein [3]: 281 nM; apparent KD of MS2 coat protein [4]: 58.4 nM
UGAGACUGAGGAUAUACUUGCCCAUAAAGUGGGUAGUGGGUACAUGAGGAUCACCCAUGUAGAAGGCAGCCUCG [Omei Repeat Sequence v3] (Eterna round: R97, puzzle: Exclusion 2)	597	46.3			
UUUACAAGCUUUAGAUCCCACAUGAGGAUCACCCAUGUUCCUGGCCGUGAGGCUAGGUAAACUAAUGCUCGUCUUAU [JL TOV1 3.65] (Eterna round: R97, puzzle: Sensor, turn-off variant 1)	197	244			
